Entries after “also recorded” stand apart in the source; their conditions may differ.
Columns and labels:
[1] = Live animal FMT imaging of orthotopic Gli36Δ5 brain tumors; assay type: in vivo, mice; details: mouse, in vivo, iv, 1 nmol/g
[2] = system: Gli36Δ5 orthotopic brain tumors; assay: as above; assay type: in vivo, mice; details: representative FMT 3-dimensional reconstruction, matching ROIs, 1 nmol/g
[3] = Live animal FMT imaging of orthotopic U87-MG brain tumors; assay type: in vivo, mice; details: mouse, in vivo, iv, 1 nmol/g
[4] = system: U87-MG orthotopic brain tumors; assay: as above; assay type: in vivo, mice; details: representative FMT 3-dimensional reconstruction, matching ROIs, 1 nmol/g
A431 cells = assay: Uptake in A431 cells with EGF stimulation; assay type: cell-based, human; details: A431 cells in the presence of the EGF ligand
EGFR [5] = molecular target: T1, EGFR (Homo sapiens, UniProt P00533); assay: Saturation binding assay on Gli36Δ5 cells
EGFR [6] = molecular target: T1, EGFR; details: radioligand binding assays; cited from earlier work

Compound: CC[C@H](C)[C@H](NC(=O)[C@@H](NC(=O)[C@H](CC(N)=O)NC(=O)[C@H](CCC(N)=O)NC(=O)[C@@H]1CCCN1C(=O)[C@@H](NC(=O)[C@H](Cc1ccc(O)cc1)NC(=O)CNC(=O)[C@H](Cc1ccc(O)cc1)NC(=O)[C@H](Cc1c[nH]c2ccccc12)NC(=O)[C@H](Cc1c[nH]cn1)NC(=O)[C@H](Cc1ccc(O)cc1)NC(=O)COCCOCCNC(=O)CCCCCN1C(=CC=CC=CC2=[N+](CC)c3ccc4c(S(=O)(=O)[O-])cc(S(=O)(=O)O)cc4c3C2(C)C)C(C)(C)c2c1ccc1c(S(=O)(=O)O)cc(S(=O)(=O)O)cc21)[C@@H](C)O)C(C)C)C(N)=O [Compound 2]
- tissue uptake dose at 1 h [1]: 1.1 %ID
- Amount of fluorescence in ROI, Gli36Δ5 [2]: 9,271 nmol/L
- tissue uptake dose at 1 h [3]: 0.27 %ID
- Amount of fluorescence in ROI, U87-MG [4]: 1,608 nmol/L
- Uptake in A431 cells on stimulation with EGF (A431 cells): increasing fluorescence; also recorded: increased the level of uptake

Compound: Cy5.5-(AEEA)2-YHWYGYTPQNVI-amide [Compound 3]
- Affinity for the cells (in words) (EGFR [5]): micromolar range

Compound: Cy5.5-(AEEA)3-YHWYGYTPQNVI-amide [Compound 4]
- Affinity for the cells (in words) (EGFR [5]): micromolar range

Compound: Cy5.5-YHWYGYTPQNVI-amide [Compound 1]
- Affinity for the cells (in words) (EGFR [5]): micromolar range

Compound: YHWYGYTPQNVI [GE11]
- Binding affinity for EGFR (in words) (EGFR [6]): nanomolar range

— publication PMC3829608 (Molecular cancer therapeutics, 2012)
